In assay [1] the target is pAcGFP1-53 (positive control bait) (UniProt P02340). Briefly: co-IP; Matchmaker Co-IP system in co-transfected HEK 293 cells (pAcGFP1 bait, ProLabel prey); read-out by ProLabel enzyme complementation, luminescence (RLU); fold induction 60 min after substrate against the experimental control (pAcGFP1-TRIB2 and ProLabel-empty vector).
The target in assay [2] is T1, Tribbles pseudokinase 2 (TRIB2), AcGFP1 fusion in HEK 293 cells (pAcGFP1-TRIB2) (bovine, UniProt Q5GLH2 1-343).
T1 construct: bovine TRIB2 (NM_178317.3); also called TRIB2 bait plasmid; source: HEK 293, transfected, in lysate
T1 sequence (looked up): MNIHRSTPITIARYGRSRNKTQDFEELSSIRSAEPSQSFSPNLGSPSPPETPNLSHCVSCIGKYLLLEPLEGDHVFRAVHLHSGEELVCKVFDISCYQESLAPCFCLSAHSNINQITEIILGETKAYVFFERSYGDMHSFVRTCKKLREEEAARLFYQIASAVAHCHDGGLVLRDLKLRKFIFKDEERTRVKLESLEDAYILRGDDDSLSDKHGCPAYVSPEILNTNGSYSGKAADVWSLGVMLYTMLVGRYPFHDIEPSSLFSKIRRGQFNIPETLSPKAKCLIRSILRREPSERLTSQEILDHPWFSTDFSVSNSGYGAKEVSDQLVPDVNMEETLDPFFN
The assay is described as above. The note with it: partners not purified.

Chain of pAcGFP1-53 (positive control bait) (P02340 whole entry, the tested form may be a part): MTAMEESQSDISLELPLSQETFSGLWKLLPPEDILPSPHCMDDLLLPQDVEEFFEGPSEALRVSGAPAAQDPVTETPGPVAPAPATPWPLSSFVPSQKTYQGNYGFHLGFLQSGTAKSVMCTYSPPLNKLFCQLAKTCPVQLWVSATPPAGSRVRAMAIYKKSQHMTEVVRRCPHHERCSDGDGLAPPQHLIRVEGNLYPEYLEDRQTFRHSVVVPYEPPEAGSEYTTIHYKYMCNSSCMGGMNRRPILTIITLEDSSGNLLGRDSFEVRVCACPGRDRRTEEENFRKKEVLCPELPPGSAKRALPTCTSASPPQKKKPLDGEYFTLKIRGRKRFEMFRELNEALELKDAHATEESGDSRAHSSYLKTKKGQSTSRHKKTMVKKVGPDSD

For “ProLabel-T (positive control prey) (natural protein)”, the fold induction of ProLabel enzymatic activity against the experimental control in assay [1] came to 4.7 fold.

B1: inhibin subunit beta A (INHBA), ProLabel prey in HEK 293 cells (natural protein, Bos taurus, UniProt P07995 21-425, looked up)
chain: SPTPGSEGHSAAPDCPSCALATLPKDVPNSQPEMVEAVKKHILNMLHLKKRPDVTQPVPKAALLNAIRKLHVGKVGENGYVEIEDDIGRRAEMNELMEQTSEIITFAESGTARKTLHFEISKEGSDLSVVERAEIWLFLKVPKANRTRSKVTIRLFQQQKHLQGSLDAGEEAEEVGLKGEKSEMLISEKVVDARKSTWHIFPVSSCIQRLLDQGKSSLDIRIACEQCQETGASLVLLGKKKKKEEEGEGKKRDGEGGAGGDEEKEQSHRPFLMLQARQSEDHPHRRRRRGLECDGKVNICCKKQFFVSFKDIGWNDWIIAPSGYHANYCEGECPSHIAGTSGSSLSFHSTVINHYRMRGHSPFANLKSCCVPTKLRPMSMLYYDDGQNIIKKDIQNMIVEECGCS
notes: Bos taurus inhibin subunit beta A; Seen at around 50 kDa after co-IP and at 44 kDa in extracts not subjected to co-IP; The insert may be the cDNA fragment found in the two-hybrid screen; source: HEK 293, transfected, in lysate
With B1, the “fold induction of ProLabel enzymatic activity against the experimental control” value in assay [2] was 9.2 fold.

B2: inositol polyphosphate phosphatase-like 1 (INPPL1), ProLabel prey in HEK 293 cells (natural protein, Bos taurus, UniProt E1BBJ7 1-1264, looked up)
chain: MASACGAPGPGGAGPGAALGSPAPAWYHRDLSRAAAEELLARAGRDGSFLVRDSESVAGAFALCVLYQKHVHTYRILPDGEDFLAVQTSQGVPVRRFQTLGELISLYAQPNQGLVCALLLPVEREREPDPPDDRDASDGEDEKPPLPPRSGSTSISAPMGPSSPPAAPETPTTPAAESAPNGLSTVSHEYLKGSYGLDLEAVRGGASNLPHLTRTLATSCRRLHSEVDKVLSGLEILSKVFDQQSSPMVTRLLQQQNPPQTGEQELESLVLKLSVLKDFLSGIQKKALKALQDMSSTAPPAPLQPSTRKAKTIPVQAFEVKLDVTLGDLTKIGKSQKFTLSVDVEGGRLVLLRRQRDSQEDWTTFTHDRIRQLIKSQRVQNKLGVVFEKEKDRTQRKDFIFVSARKREAFCQLLQLMKNKHSKQDEPDMISIFIGTWNMGSVPPPKNVTSWFTSKGLGKTLDEVTVTIPHDIYVFGTQENSVGDREWLDLLRGGLKELTDLDYRPIAMQSLWNIKVAVLVKPEHENRISHVSTSSVKTGIANTLGNKGAVGVSFMFNGTSFGFVNCHLTSGNEKTARRNQNYLDILRLLTLGDRQLSAFDISLRFTHLFWFGDLNYRLDMDIQEILNYISRKEFEPLLRVDQLNLEREKHKVFLRFSEEEISFPPTYRYERGSRDTYAWHKQKPTGVRTNVPSWCDRILWKSYPETHIICNSYGCTDDIVTSDHSPVFGTFEVGVTSQFISKKGLSKTSDQAYIEFESIEAIVKTASRTKFFIEFYSTCLEEYKKSFENDAQSSDNINFLKVQWSSRQLPTLNPILADIEYLQDQHLLLTVKSMDGYESYGECVVALKSMIGSTAQQFLTFLSHRGEETGNIRGSMKVRVPTERLGTRERLYEWISIDKDEAGAKSKAPSVSRGSQDPRSGSRKPASTEASCPLSKLFEEPEKPPPTGRPPAPPRAAPREEPLTPRLKPEGAPELEGVVAPPPKNSFNNPAYYVLEGVPHQLLPPEPPSPARAPVPPATKNKVAITVPAPQLGRHRPPRAGEGSSSDEDSGGTLPPPDFPPPPLPDSAIFLPPGLDPLPGPVIRGRSGGEARGPPPPKAHPRPPLPPGPSPASTFLGDVASGDDRSCSVLQMAKTLSEVDYAPAGPGRAMLLPGPLELQPPRGLPSDYGRPLSFPPPRIRESIQEDLAEEAPCPQVGRAGGLGEAGMGAWLRAIGLERYEEGLVHNGWDDLEFLSDITEEDLEEAGVQDPAHKRLLLDTLQLSK
notes: Bos taurus inositol polyphosphate phosphatase-like 1; Bands at around 50 kDa and 100 kDa after co-IP, around 160 kDa in extracts not subjected to co-IP; The insert may be the cDNA fragment found in the two-hybrid screen; also called SHIP2; SH2-containing inositol 5'-phosphatase 2; source: HEK 293, transfected, in lysate
Turning to B2, the “fold induction of ProLabel enzymatic activity against the experimental control” value in assay [2] stood at 2.3 fold.

For the origin of these results see PMC7913596, “Tribbles Pseudokinase 2 (TRIB2) Regulates Expression of Binding Partners in Bovine Granulosa Cells” (International Journal of Molecular Sciences, 2021).
